Measurements taken from publication PMC3258140 (Nucleic Acids Research, 2011).

Molecular target: the molecule itself
Assay: crystal structure

B1: Thermotoga maritima Mre11^(H94Q, F291S) (residues L7M-385), nuclease deficient (enzyme)
chain: MKILHTSDWHLGVTSWTSSRPVDRREELKKALDKVVEEAEKREVDLILLTGDLLHSRNNPSVVALHDLLDYLKRMMRTAPVVVLPGNQDWKGLKLFGNFVTSISSDITFVMSFEPVDVEAKRGQKVRILPFPYPDESEALRKNEGDFRFFLESRLNKLYEEALKKEDFAIFMGHFTVEGLAGYAGIEQGREIIINRALIPSVVDYAALGHIHSFREIQKQPLTIYPGSLIRIDFGEEADEKGAVFVELKRGEPPRYERIDASPLPLKTLYYKKIDTSALKSIRDSCRNFPGYVRVVYEEDSGILPDLMGEIDNLVKIERKSRREIEEVLRESPEEFKEELDKLDYFELFKEYLKKREENHEKLLKILDELLDEVKKSEA
Q: Does B1 bind?
A: binds
